{
  "source": "patent US20250332299A1",
  "about": "“COMPOUND TARGETING SSTR2, PREPARATION METHOD THEREFOR AND USE THEREOF” (YANTAI LANNACHENG BIOTECHNOLOGY CO., LTD., priority 2022, published 2025)",
  "key": {"AR42J tumor": {"tested_on": "AR42J tumor", "assay": "MicroPET imaging in AR42J tumor-bearing mice", "assay_type": "in vivo", "details": "unlabeled compound injected simultaneously with ^68Ga-DOTA-TATE, PET", "description": "^68Ga-TATE-EB-01 was prepared according to the method in Example 2. […] Results are shown in FIG. 4, FIG. 5, FIG. 6 and FIG. 7."}, "[1]": {"details": "in vivo; cited from earlier work"}, "in vivo": {"assay": "in vivo", "parameters": "species or system mice", "details": "mouse, iv, 1.48 Mbq, total radioactivity", "description": "Organs and tumor tissues of interest were collected and weighed. The radioactivity was detected by a γ counter, and biological distribution results were calculated as a percent of an injection dose per gram of tissue (% ID/g)."}},
  "data": [
    {"smiles": "Cc1cc(-c2ccc(NC(=O)[C@H](CCCCNC(=O)CCOCCOCCC(=O)N[C@H](Cc3ccccc3)C(=O)N[C@H]3CSSC[C@@H](C(=O)N[C@H](C(=O)O)[C@@H](C)O)NC(=O)[C@H]([C@@H](C)O)NC(=O)[C@H](CCCCN)NC(=O)[C@@H](Cc4c[nH]c5ccccc45)NC(=O)[C@H](Cc4ccc(O)cc4)NC3=O)NC(=O)CN3CCN(CC(=O)O)CCN(CC(=O)O)CCN(CC(=O)O)CC3)c(C)c2)ccc1N=Nc1ccc2c(S(=O)(=O)O)cc(S(=O)(=O)O)c(N)c2c1O", "note": "(single isomer, unassigned) [TATE-EB-01]", "values": [
      {"measurement": "inhibition of tumor uptake of ^68Ga-DOTA-TATE", "setting": "AR42J tumor", "result": "significantly inhibit tumor uptake"}
    ]},
    {"smiles": "Cc1cc(-c2ccc(NC(=O)[C@H](CCCCNC(=O)CCN3C(=O)CC(SCCC(=O)N[C@H](Cc4ccccc4)C(=O)N[C@H]4CSSC[C@@H](C(=O)N[C@H](C(=O)O)[C@@H](C)O)NC(=O)[C@H]([C@@H](C)O)NC(=O)[C@H](CCCCN)NC(=O)[C@@H](Cc5c[nH]c6ccccc56)NC(=O)[C@H](Cc5ccc(O)cc5)NC4=O)C3=O)NC(=O)CN3CCN(CC(=O)O)CCN(CC(=O)O)CCN(CC(=O)O)CC3)c(C)c2)ccc1N=Nc1ccc2c(S(=O)(=O)O)cc(S(=O)(=O)O)c(N)c2c1O", "note": "(single isomer, unassigned) [^177Lu-EB-TATE, metal not drawn]", "values": [
      {"measurement": "half-life in the blood", "setting": "[1]", "result": 9.47, "unit": "h"},
      {"measurement": "half-life in the blood relative to Lutathera", "setting": "[1]", "result": "about 4 times"}
    ]},
    {"smiles": "Cc1cc(-c2ccc(NC(=O)[C@H](CCCCNC(=O)CCOCCOCCC(=O)N[C@H](Cc3ccccc3)C(=O)N[C@H]3CSSC[C@@H](C(=O)N[C@H](C(=O)O)[C@@H](C)O)NC(=O)[C@H]([C@@H](C)O)NC(=O)[C@H](CCCCN)NC(=O)[C@@H](Cc4c[nH]c5ccccc45)NC(=O)[C@H](Cc4ccc(O)cc4)NC3=O)NC(=O)CN3CCN(CC(=O)O)CCN(CC(=O)O)CCN(CC(=O)O)CC3)c(C)c2)ccc1N=Nc1ccc2c(S(=O)(=O)O)cc(S(=O)(=O)O)c(N)c2c1O", "note": "[^177Lu-TATE-EB-01, metal not drawn]", "values": [
      {"measurement": "tissue uptake at 72 h", "setting": "in vivo", "result": "158 ± 20", "unit": "%ID/g"},
      {"measurement": "tissue uptake at 96 h", "setting": "in vivo", "result": "112 ± 20.6", "unit": "%ID/g"}
    ]}
  ]
}
